Assay results taken from article PMC11518761, “Making the effect visible – OX40 targeting nanobodies for in vivo imaging of activated T cells” (Frontiers in Immunology, 2024).

Tests used:
[1] = target: T1, recombinant hOX40, extracellular part (Leu 29 - Ala 216) (human, UniProt P43489 29-216); test: BLI
T1 chain: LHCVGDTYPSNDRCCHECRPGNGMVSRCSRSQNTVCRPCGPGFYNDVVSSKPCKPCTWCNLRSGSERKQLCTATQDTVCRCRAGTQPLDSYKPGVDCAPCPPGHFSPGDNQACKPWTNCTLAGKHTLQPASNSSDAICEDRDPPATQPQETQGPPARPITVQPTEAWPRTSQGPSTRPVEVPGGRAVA

[2] = target: T1, recombinant hOX40, extracellular part …; test: BLI
[3] = target: T2, endogenous hOX40 on activated human T cells (Homo sapiens, UniProt P43489); test: flow cytometry on cells; hPBMCs of three donors after 24 h PHA-L/IL-2 stimulation, AF647-labeled Nbs (200 nM; 400 nM for T cell subpopulations), 4°C, gated on CD3+ (and CD4+, CD8+, Treg); conditions: one partner purified
T2 construct: human OX40 (CD134/TNFRSF4), endogenous on T cells; also called physiologically expressed hOX40; source: endogenous, hPBMCs of healthy donors stimulated 24 h with PHA-L and IL-2 (CD3+ T cells)

[4] = target: T3, hOX40 full length on U2OS cells (U2OS-hOX40) (Homo sapiens, UniProt P43489); test: flow cytometry on cells; U2OS-hOX40 cells with dilution series of AF647-labeled Nbs (O12, O18 from 2.5 µM; O7, O19 from 10 µM), 4°C, 30 min, FACS buffer; KD as half-maximum binding at equilibrium, four-parametric sigmoidal model; conditions: one partner purified
T3 construct: human OX40 (CD134/TNFRSF4), cDNA GenBank NM_003327.3 in an IRES-eGFP/Blasticidin S deaminase vector; Also used as the target of the functional rows, where hOX40 stood on Jurkat-based OX40 effector cells (Promega); also called cellular expressed hOX40; hOX40 full length (D1-4); source: U2OS cells stably overexpressing hOX40, on the cell surface

[5] = target: T4, recombinant hOX40, extracellular part (Leu 29 - Ala 216) (human, UniProt P43489); test: BLI; biotinylated Nb (5 µg/mL) immobilised on streptavidin biosensors; hOX40 dilution series 0.2 nM - 320 nM, association 300 s, dissociation 720 s; Octet buffer (PBS, 0.1% BSA, 0.02% Tween20); 1:1 ligand-binding model, global fitting; conditions: both partners purified
T4 construct: human OX40 (CD134/TNFRSF4), extracellular part, Leu29 to Ala216; The limits are stated for the immunogen; the BLI methods say only 'hOX40' / 'recombinant hOX40'; also called CD134; TNFRSF4; source: bought: Acrobiosystems, produced in human HEK293 cells

[6] = target: T5, hOX40 full length on U2OS cells (U2OS-hOX40) (human, UniProt P43489 29-277); test: FACS
T5 chain: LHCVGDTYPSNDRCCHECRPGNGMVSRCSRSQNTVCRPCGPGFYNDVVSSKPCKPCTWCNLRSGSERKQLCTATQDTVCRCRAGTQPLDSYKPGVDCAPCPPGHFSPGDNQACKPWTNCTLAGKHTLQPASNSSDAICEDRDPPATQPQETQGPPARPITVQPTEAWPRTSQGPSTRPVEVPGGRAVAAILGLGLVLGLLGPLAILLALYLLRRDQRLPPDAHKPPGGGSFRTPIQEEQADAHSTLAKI

[7] = target: T6, human OX40 on HT1080 cells (HT1080-hOX40) (Homo sapiens, UniProt P43489); test: in vivo optical imaging; 5 µg O18-AF647 i.v. in CD1 nude mice with subcutaneous HT1080-hOX40 or HT1080-WT tumors; imaging over 6 h and ex vivo imaging of explanted tumors; conditions: one partner purified
T6 construct: human OX40 (CD134/TNFRSF4); the construct used for HT1080 cells is not described; source: HT1080 cells stably expressing human OX40, as subcutaneous xenograft tumors in CD1 nude mice

[8] = target: T7, murine OX40 on U2OS cells (Mus musculus, UniProt P47741); test: immunostaining of cells or tissue; live-cell immunofluorescence of U2OS cells expressing hOX40 (stable) or murine OX40 (transient) with 10 -1000 nM AF647-labeled Nbs, 30 min, 4°C; conditions: one partner purified
T7 construct: murine OX40, DNA bought from Sino Biological (Catalog Number MG50808-NM); The catalogue suffix -NM may denote an N-terminal Myc tag (surmised); also called mOX40; source: U2OS cells, transiently transfected, on the cell surface
T7 sequence (P47741 20-272): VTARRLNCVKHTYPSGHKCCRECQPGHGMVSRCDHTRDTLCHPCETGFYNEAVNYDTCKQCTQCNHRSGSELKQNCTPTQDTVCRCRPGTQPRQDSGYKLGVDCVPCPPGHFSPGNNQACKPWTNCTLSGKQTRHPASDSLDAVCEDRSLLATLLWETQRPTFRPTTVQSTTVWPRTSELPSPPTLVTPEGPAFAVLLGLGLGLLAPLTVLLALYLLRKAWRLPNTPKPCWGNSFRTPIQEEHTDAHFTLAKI

[9] = target: hOX40-Nbs with KD values in the pico- to low nanomolar range (O12, O18 and O19); test: BLI; biotinylated Nb (5 µg/mL) immobilised on streptavidin biosensors; hOX40 dilution series 0.2 nM - 320 nM, association 300 s, dissociation 720 s; Octet buffer (PBS, 0.1% BSA, 0.02% Tween20); 1:1 ligand-binding model, global fitting

B1: hOX40-Nb O19 (VHH)
VHH: QVQLQESGGGLVQPGGSLRLSCAGSTDTFSMSAAVSWARQAPGKGLEWVSSILSDGSTYYADSVRGRFTISRDNANNTGSLQMNNLKVEDTAVYYCTNLRGRLWSNHKDDYGGQGSRVTVSS
modifications: biotin where immobilised in BLI (site not stated)
B1 showed a koff [1] of 0.00021 s⁻¹ and a Kd [2] of 3.41 nM.

B2: AF647-labeled hOX40-Nb O19 (VHH)
VHH: B1 VHH
notes: Uncoupled Nb was removed by Ni-NTA, so the His tag is probably lost on sortase coupling (surmised); also called fluorescent Nb O19; source: E. coli XL-1, purified; sortase A coupling, click labelling with DBCO-AF647, HIC
B2: binds [3]; binds [4].

B3: hOX40-Nb O19 (VHH)
VHH: B1 VHH
notes: source: E. coli XL-1 (pHEN6), purified (IMAC, SEC)
B3: binds [5].

B4: AF647-labeled hOX40-Nb O19 (VHH)
VHH: B1 VHH
modifications: C-terminal Gly-Gly-Gly-propyl-azide attached by sortase A and clicked to DBCO-AF647 (labeling ratio 1:1)
B4 gave a Kd [6] of 9.95 nM.

B5: hOX40-Nb O18 (VHH)
VHH: QVQLVESGGGLVQPGGSLRLSCAASGFTLEDYVIGWFRQAPGKEREEVSCISGSGGIRNVADSMEGRATISRDNAKNTVYLQMNSLKPEDTAVYYCAAGFETSYSYSYYCGVHEYDYWGQGTLVTVSS
modifications: biotin where immobilised in BLI (site not stated)
For B5, the koff [1] was 0.00075 s⁻¹ and the Kd [2] was 1.93 nM.

B6: AF647-labeled hOX40-Nb O18 (VHH)
VHH: B5 VHH
notes: Uncoupled Nb was removed by Ni-NTA, so the His tag is probably lost on sortase coupling (surmised); also called O18_(AF647); fluorescently-labeled Nb O18; source: E. coli XL-1, purified; sortase A coupling, click labelling with DBCO-AF647, HIC
In the case of B6, the “fold signal intensity in HT1080-hOX40 over HT1080-WT tumors, 6 h post injection” value [7] is reported as about 7 fold and the Kd [4] is reported as about 0.3 nM.

B7: hOX40-Nb O7 (VHH)
VHH: DVQLVESGGGLVQPGGSLRLSCAASGFTFGSYAMGWARQVPGKGLEWVSGIYSDGSTYYADSVKGRFTISRDNAKNTVYLQMNSLKPEDTAVYYCATWGAAAPYDYWGQGTQVTVSS
modifications: biotin where immobilised in BLI (site not stated)
In the case of B7, the koff [1] is reported as 0.00117 s⁻¹.

B8: AF647-labeled hOX40-Nb O7 (VHH)
VHH: B7 VHH
modifications: C-terminal Gly-Gly-Gly-propyl-azide attached by sortase A and clicked to DBCO-AF647 (labeling ratio 1:1)
B8 was tested, and the Kd [6] was 5.99 nM.

B9: hOX40-Nb O7 (VHH)
VHH: B7 VHH
notes: as for B3
B9 gave a Kd [5] of about 150 nM.

B10: AF647-labeled hOX40-Nb O7 (VHH)
VHH: B7 VHH
notes: Uncoupled Nb was removed by Ni-NTA, so the His tag is probably lost on sortase coupling (surmised); also called fluorescent Nb O7; source: E. coli XL-1, purified; sortase A coupling, click labelling with DBCO-AF647, HIC
B10: binds [8].

B11: hOX40-Nb O12 (VHH)
VHH: DVQLQESGGGLVQPGGSLRLSCAASGFTLDNYAIGWFRQAPGKEREGVSCISSSGESTNYADSVKGRFTISRDNAKNTVYLQTNSLKPEDTAVYYCAAVDDIGTTVQFMCNMGPYEYDYWGQGSPVTVSS
modifications: biotin where immobilised in BLI (site not stated)
For B11, the koff [1] was 2e-05 s⁻¹ and the Kd [2] was 0.21 nM.

B12: AF647-labeled hOX40-Nb O12 (VHH)
VHH: B11 VHH
notes: Uncoupled Nb was removed by Ni-NTA, so the His tag is probably lost on sortase coupling (surmised); also called fluorescent Nb O12; source: E. coli XL-1, purified; sortase A coupling, click labelling with DBCO-AF647, HIC
B12 showed a Kd [4] of about 0.1 nM.

B13: AF647-labeled hOX40-Nb O12 (VHH)
VHH: B11 VHH
modifications: C-terminal Gly-Gly-Gly-propyl-azide attached by sortase A and clicked to DBCO-AF647 (labeling ratio 1:1)
With B13 the Kd [6] was 0.07 nM.

B14: recombinant hOX40, extracellular part (Leu 29 - Ala 216) (domain or fragment)
chain: T1 chain
For B14, the Kd [9] was 0.2 to 3.4 nM.
